Reference: patent US20260242497A1 (VIAL HEALTH TECHNOLOGY, published 2026)
Several values for one entry are separate records, joined by “and”; a condition that tells them apart may be missing. Equal entries are not always repeated.

Legend:
human FcRn [1] = target: T1, human FcRn (human, UniProt P55899 24-297; P61769 21-119); assay: SPR, Biacore 8K, CM5 chip, FcRn, pH 6.0
T1 construct: also called neonatal Fc receptor

[2] = target: T2, biotinylated recombinant human TL1A (human, UniProt O95150 57-251, limits assumed, biotinylated (sites not given)); assay: competition ELISA, blocks biotinylated human TL1A (3.5 nM) binding to coated DR3/Fc
T2 sequence: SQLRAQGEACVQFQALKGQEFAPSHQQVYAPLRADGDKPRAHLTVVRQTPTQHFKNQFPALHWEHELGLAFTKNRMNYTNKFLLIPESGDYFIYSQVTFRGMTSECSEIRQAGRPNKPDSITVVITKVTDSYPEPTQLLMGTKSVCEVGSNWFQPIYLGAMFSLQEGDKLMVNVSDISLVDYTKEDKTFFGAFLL

human FcRn [3] = target: T1, human FcRn; assay: SPR, Biacore 8K, CM5 chip, antibody immobilised, human FcRn as analyte, pH 6.0
[4] = target: T3, TL1A (antigen of Examples 1 and 2, species not stated) (UniProt O95150 57-251, limits assumed); assay: SPR, Biacore 8K, Protein A chip, antibody captured, antigen as analyte
T3 construct: also called recombinant purified antigen; TNFSF15
T3 sequence (looked up): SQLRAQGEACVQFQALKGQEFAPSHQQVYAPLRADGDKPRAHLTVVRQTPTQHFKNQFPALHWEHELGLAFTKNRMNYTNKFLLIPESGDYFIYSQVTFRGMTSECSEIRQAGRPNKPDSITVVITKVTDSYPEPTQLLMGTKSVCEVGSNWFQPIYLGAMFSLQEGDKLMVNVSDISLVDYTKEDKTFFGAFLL

[5] = target: T3, TL1A (antigen of Examples 1 and 2, …); assay: cell-based or functional assay
[6] = target: T2, biotinylated recombinant human TL1A; assay: competition ELISA, blocks biotinylated human TL1A (3.5 nM) binding to coated DcR3/Fc

Kd (human FcRn [1]): 159 nM and 190 nM | IC50 [2]: 0.58 nM | Kd (human FcRn [3]): 159 nM and 190 nM | Kd [4]: < 0.0262 nM | IC50 (nM), inhibition of TL1A-induced apoptosis of TF-1 cells (Caspase-Glo 3/7) [5]: 0.87 nM | max inhibition of TL1A-induced apoptosis of TF-1 cells [5]: 95% | IC50 [6]: 1.3 nM
B1: AB_TL1A_02_004_HL2 (antibody, human IgG1, kappa)
heavy: QVQLVQSGAEVKKPGASVKVSCKASGYDFTYYGISWVRQAPGQGLEWMGWISPYNGNTHYAQKLQGRVTMTTDTSTRTAYMELRSLRSDDTAVYYCARENYYGSGAYRGGMDVWGQGTTVTVSSASTKGPSVFPLAPSSKSTSGGTAALGCLVKDYFPEPVTVSWNSGALTSGVHTFPAVLQSSGLYSLSSVVTVPSSSLGTQTYICNVNHKPSNTKVDKKVEPKSCDKTHTCPPCPAPEAAGAPSVFLFPPKPKDTLMISRTPEVTCVVVDVSHEDPEVKFNWYVDGVEVHNAKTKPREEQYNSTYRVVSVLTVLHQDWLNGKEYKCKVSNKALPAPIEKTISKAKGQPREPQVYTLPPSREEMTKNQVSLTCLVKGFYPSDIAVEWESNGQPENNYKTTPPVLDSDGSFFLYSKLTVDKSRWQQGNVFSCSVLHEALHSHYTQKSLSLSPG
light: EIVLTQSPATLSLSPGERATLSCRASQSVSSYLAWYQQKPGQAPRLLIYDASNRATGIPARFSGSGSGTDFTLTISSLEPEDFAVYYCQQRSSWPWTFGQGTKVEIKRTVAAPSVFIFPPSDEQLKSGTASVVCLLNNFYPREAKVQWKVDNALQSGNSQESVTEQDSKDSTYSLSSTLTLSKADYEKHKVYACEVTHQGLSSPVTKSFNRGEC
notes: HLE mutations M428L, N434S
